Source: US7459543B2, “Modulators of antiestrogen pharmacology” (priority 2000, dated 2008)

T1: Progesterone Receptor β (PRβ) (Homo sapiens, UniProt P06401)
T1 sequence (P06401 1-933): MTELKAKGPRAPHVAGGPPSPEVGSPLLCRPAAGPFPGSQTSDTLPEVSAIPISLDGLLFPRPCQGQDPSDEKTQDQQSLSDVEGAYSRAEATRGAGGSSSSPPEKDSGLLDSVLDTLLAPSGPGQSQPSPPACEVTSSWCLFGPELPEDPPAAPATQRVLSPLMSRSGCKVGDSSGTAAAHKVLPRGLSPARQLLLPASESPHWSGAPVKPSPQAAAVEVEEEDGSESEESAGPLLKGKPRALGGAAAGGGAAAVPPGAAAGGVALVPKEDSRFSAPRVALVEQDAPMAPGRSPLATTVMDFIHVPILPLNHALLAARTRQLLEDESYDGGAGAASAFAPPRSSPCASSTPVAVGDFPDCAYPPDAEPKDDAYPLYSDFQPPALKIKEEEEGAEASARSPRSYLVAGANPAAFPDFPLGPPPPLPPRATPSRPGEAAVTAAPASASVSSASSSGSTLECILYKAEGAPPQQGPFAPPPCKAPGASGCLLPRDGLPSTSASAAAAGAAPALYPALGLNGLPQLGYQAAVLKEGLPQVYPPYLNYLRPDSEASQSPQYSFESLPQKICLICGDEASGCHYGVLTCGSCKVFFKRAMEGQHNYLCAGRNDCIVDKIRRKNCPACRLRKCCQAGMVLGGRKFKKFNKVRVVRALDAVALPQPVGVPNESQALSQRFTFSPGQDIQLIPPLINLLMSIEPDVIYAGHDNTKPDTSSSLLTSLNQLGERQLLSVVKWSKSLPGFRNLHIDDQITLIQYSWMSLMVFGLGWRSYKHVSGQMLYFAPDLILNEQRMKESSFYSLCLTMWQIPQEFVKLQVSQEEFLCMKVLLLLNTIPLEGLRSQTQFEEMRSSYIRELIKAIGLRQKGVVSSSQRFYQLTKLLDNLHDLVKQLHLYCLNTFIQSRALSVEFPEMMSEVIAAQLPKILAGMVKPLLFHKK

T2: estrogen receptor α (ERα) (Homo sapiens, UniProt P03372)
T2 construct: made in house
T2 sequence (P03372 1-595): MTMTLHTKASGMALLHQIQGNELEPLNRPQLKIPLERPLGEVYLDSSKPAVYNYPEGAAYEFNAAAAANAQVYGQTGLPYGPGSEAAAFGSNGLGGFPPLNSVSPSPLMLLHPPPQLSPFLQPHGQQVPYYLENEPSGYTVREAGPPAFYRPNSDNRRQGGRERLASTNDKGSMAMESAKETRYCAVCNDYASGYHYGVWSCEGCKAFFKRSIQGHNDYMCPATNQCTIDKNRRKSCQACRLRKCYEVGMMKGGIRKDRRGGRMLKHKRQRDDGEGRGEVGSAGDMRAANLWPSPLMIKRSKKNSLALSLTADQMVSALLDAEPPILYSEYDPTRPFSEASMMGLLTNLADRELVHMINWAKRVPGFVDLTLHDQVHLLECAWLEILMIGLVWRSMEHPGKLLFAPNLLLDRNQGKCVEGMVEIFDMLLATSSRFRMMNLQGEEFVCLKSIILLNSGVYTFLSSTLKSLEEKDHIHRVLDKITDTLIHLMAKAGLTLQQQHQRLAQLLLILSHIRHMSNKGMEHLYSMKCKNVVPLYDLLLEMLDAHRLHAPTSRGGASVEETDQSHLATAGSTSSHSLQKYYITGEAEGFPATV


Experiments:
ERCoA3 = test: Northern hybridization for ERCoA3 expression in MCF-7 cells; type: cell-based, human; settings: 10^-8 M, 24 h
Procedure: FIG. 8. ERCoA3 is expressed in cells that respond to tamoxifen as an agonist. (A) Total RNA was isolated from untreated parental MCF-7 cells (−), and cells treated for 24 h with 10^−8 M estradiol (E2) or 10^−8 M trans-hydroxytamoxifen (TOT), and tamoxifen resistant cells (TOT^R). (B) Total RNA was collected from untreated Hec cells and cells treated for 24 h with 10^−8 M estradiol (E2) or 10^−8 M trans-hydroxytamoxifen. Equal amounts (20 μg) of total RNA were separated by electrophoresis. Blots were probed with the random primer labeled ERCoA3 cDNA and 36B4 cDNA (to control for RNA loading).
It was determined whether there was increased expression of ERCoA3 in cells that were resistant to SERMs, specifically TOT. RNA was isolated from MCF-7 cells and also from tamoxifen-resistant (TOT^R) MCF-7 cells. Northern hybridization was performed using an ERCoA3 probe. These experiments indicated increased expression of ERCoA3 in TOT^R MCF-7 cells when compared to parental MCF-7 cells (FIG. 8A). […] Expression of ERCoA3 was also examined in another human cell line, human endometrium cancer cell line, HEC-1B.

[1] = target: T1, Progesterone Receptor β (PRβ); test: MMTV-CAT reporter assay in CHO cells transfected with PRβ; type: cell-based; set-up: expressed in transfected cells; host or cells: CHO cells; settings: CHO cells cotransfected with ERCoA3 vs cmv5 control; unliganded, 10^-8 M R5020 or RU-486, 24 h
Procedure: FIG. 7. ERCoA3 enhances partial agonist activity of RU-486. CHO cells were transfected with expression vectors for Progesterone Receptor β (PRβ) or reporter construct MMTV-CAT. The cells were cotransfected with cmv5 control expression vector or expression vector for ERCoA3 as indicated. The cells were also transfected with a β-galactosidase internal control reporter to correct for transfection efficiency. Cells were then treated for 24 h with 10^−8 M R5020 or RU-486. Values are the means ±S.E. from three separate experiments.
(§1) Somewhat different findings were made with Progesterone Receptor β (PRβ).

ERα = test: (ERE)2-TATA-CAT reporter assay in CHO cells transfected with ERα; type: cell-based; settings: CHO cells cotransfected with ERCoA3 expression vector vs cmv5 control; estrogen, TOT or ICI, 24 h
Procedure: FIG. 5. ERCoA3 enhances partial agonist activity of antiestrogens. CHO cells were transfected with expression vectors for ERα and reporter construct (ERE)2-TATA-CAT. The cells were cotransfected with cmv5 control expression vector or expression vector for ERCoA3, as indicated. The cells were also transfected with a β-galactosidase internal control reporter to correct for transfection efficiency. Cells were then treated for 24 h with control vehicle or increasing concentrations of estradiol (E2), trans-hydroxytamoxifen (TOT) or ICI 182,780, as indicated. Values are the means ± S.E. from three separate experiments.
The ability of ERCoA3 to affect the response that a ligand has on ER was then tested. CHO cells were transfected with a CAT reporter construct wherein transcription of the CAT gene was regulated by a estrogen-responsive element, or with both a CAT reporter construct and an expression vector for ERCoA3. The cells were grown in either estrogen, TOT or ICI, and CAT activity was assayed.

[2] = target: T1, Progesterone Receptor β (PRβ); test: GST-ERCoA3 protein-protein interaction (pull-down) assay with [35S]-PRβ; type: binding; settings: vehicle, 10^-6 M R5020 or RU-486
Procedure: (§2) FIG. 4. ERCoA3 preferentially interacts with antagonist-bound ERα and PRβ. In vitro translated and [^35S]-methionine-labeled (A) Estrogen Receptor α (ERα) or (B) Progesterone Receptor β (PRβ) were incubated with GST alone or GST-ERCoA3 bound to Sepharose in the presence of vehicle, 10^−6 M Estradiol (E2), 10^−6 M trans-hydroxytamoxifen (TOT), 10^−6 M ICI 182,780 (ICI), 10^−6 M R5020, or 10^−6 M RU-486 as indicated. Bound protein was eluted with excess glutathione and analyzed by 12.5% SDS-polyacrylamide gel electrophoresis. The autoradiograph is representative of 3 separate experiments. Abbreviations: E2, 17-β estradiol; TOT, transhydroxytamoxifen; ICI, ICI182,780 (a pure ER antagonist); R5020, a synthetic PR agonist, and RU-486, a partial agonist of PRβ.
as §1

[3] = target: T2, estrogen receptor α (ERα); test: GST-ERCoA3 protein-protein interaction (pull-down) assay with [35S]-ERα; type: binding; settings: vehicle, 10^-6 M E2, TOT or ICI
Procedure: as §2
A protein-protein interaction assay was used in which the affinity matrix (i.e., bound to a column) was a glutathione-S-transferase (GST) fusion protein wherein GST was fused to ERCoA3. In vitro transcribed and translated [^35S]-ERα was retained by the GST-ERCoA3 affinity column preferentially in the presence of antiestrogens, trans-hydroxytamoxifen (TOT) and ICI182,780 (ICI) when compared to estradiol (E2) (FIG. 4A). ERα was not retained on the GST protein column without ERCoA3 (or GST alone).

[4] = system: ERα transcriptional activity; test: (ERE)2-PS2-CAT reporter assay in MCF-7 cells; type: cell-based, human; settings: MCF-7 cells cotransfected with ERCoA3 vs cmv5 control; 10^-8 M E2 plus increasing TOT or ICI, 24 h
Procedure: FIG. 6. ERCoA3 attenuates the antiestrogenic effects of TOT and ICI on ERα transcriptional activity. MCF-7 cells were transfected with (ERE)2-PS2-CAT reporter construct. The cells were cotransfected with cmv5 control expression vector or expression vector for ERCoA3, as indicated. The cells were also transfected with a β-galactosidase internal control reporter to correct for transfection efficiency. Cells were then treated for 24 h with 10^−8 M estradiol (E2) and increasing concentration of trans-hydroxytamoxifen (TOT; panel A) or ICI 182,780 (ICI; panel B). Values are the means ±S.E. from three separate experiments.
Another very similar study examined the effect of ERCoA3 on the ability of TOT (FIG. 6A) and ICI (FIG. 6B) to block activation of ER. MCF-7 cells were transfected with a CAT reporter construct wherein transcription of the CAT gene was regulated by a estrogen-responsive element, or with both a CAT reporter construct and an expression vector for ERCoA3. The cells were then grown in TOT or ICI and CAT activity was assayed.

| Molecule | ERCoA3 expression (Northern) (ERCoA3) | PRβ transcriptional activity [1] | CAT activity (activation of ER) (ERα) | interaction of ERCoA3 with PRβ [2] | retention of [35S]-ERα on GST-ERCoA3 affinity column [3] | activation of ER (CAT activity) in presence of TOT or ICI [4] |
| --- | --- | --- | --- | --- | --- | --- |
| C[C@]12CC[C@@H]3c4ccc(O)cc4CC[C@H]3[C@@H]1CC[C@@H]2O [E2, 17-β-estradiol] | Neither E2 nor TOT affected ERCoA3 expression |  |  |  |  |  |
| trans-hydroxytamoxifen [TOT] | Neither E2 nor TOT affected ERCoA3 expression |  |  |  |  |  |
| ERCoA3: 79 amino acid ER coactivator protein (SEQ. ID. NO. 2); used as GST fusion or expressed from vector (protein, listed as Homo sapiens) MCGRPRRVSAGCGFADAHWTGLWTGLGEGQEGGIGPEGQASPTPDCASRWPRSASRWPWSAGLTVRDRPQLGELCMGRG |  | enhanced the activity of both unliganded and RU-486-bound PRβ | increased CAT activity | interacted with both unliganded and antiprogestin- (RU-486, a partial agonist) bound PRβ | binds ER but binds ER better if ER are already bound to a partial agonist or antagonist | increases activation of ER |
